Experimental data: article PMC3656124, “DNA Topoisomerase II Is Involved in Regulation of Cyst Wall Protein Genes and Differentiation in Giardia lamblia” (PLoS Neglected Tropical Diseases, 2013)

Molecular target: T1, Topo II (Giardia lamblia, UniProt E2RU90 1-1491)
T1 sequence: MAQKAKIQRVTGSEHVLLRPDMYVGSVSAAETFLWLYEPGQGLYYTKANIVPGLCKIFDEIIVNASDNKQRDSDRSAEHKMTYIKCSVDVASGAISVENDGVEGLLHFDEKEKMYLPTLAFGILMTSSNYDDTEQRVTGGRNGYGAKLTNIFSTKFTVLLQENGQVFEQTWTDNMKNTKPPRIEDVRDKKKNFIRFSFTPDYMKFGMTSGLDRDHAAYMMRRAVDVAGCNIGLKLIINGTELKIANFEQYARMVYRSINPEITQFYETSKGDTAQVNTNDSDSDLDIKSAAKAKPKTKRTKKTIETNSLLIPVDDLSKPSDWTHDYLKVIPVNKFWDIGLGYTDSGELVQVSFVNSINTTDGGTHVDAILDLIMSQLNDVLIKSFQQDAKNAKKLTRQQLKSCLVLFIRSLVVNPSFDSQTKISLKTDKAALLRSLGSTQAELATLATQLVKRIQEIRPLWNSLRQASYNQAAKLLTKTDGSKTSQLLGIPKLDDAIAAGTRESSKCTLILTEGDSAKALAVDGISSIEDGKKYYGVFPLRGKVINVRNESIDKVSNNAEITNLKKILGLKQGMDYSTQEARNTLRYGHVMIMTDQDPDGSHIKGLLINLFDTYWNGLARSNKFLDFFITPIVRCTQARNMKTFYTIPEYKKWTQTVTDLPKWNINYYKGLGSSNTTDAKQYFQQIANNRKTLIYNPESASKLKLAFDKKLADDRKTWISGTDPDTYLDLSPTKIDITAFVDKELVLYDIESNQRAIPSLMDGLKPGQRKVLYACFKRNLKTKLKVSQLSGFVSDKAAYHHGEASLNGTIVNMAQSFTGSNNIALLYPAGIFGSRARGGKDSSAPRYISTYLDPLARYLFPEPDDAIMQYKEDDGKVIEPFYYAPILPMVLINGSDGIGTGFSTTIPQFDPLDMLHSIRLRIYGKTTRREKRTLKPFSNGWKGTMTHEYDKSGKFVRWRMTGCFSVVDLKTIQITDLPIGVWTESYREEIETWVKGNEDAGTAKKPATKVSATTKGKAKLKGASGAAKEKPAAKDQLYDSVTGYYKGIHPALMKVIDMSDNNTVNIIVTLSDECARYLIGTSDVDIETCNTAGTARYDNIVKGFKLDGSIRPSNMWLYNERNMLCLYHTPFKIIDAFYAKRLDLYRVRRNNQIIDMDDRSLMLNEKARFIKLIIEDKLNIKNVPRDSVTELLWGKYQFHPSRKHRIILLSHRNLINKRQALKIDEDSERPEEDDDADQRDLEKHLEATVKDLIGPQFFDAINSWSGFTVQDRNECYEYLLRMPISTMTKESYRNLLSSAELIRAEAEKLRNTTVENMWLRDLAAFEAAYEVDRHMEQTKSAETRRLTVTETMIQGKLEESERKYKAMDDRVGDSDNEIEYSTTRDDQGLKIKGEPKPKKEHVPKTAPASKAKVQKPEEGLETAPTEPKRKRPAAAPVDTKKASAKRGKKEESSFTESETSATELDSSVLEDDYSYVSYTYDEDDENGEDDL
Assay: EMSA; EMSA: 0.02 pmol 5'-labeled probe, 5 ng protein, 20 ul, 0.5 ug poly(dI-dC), 15 min, room temperature, 6% acrylamide gel; buffer, salt and pH only by citation
Conditions: protein: recombinant; tags: C-terminal V5-His; chain copies: 2; label: 5'-32P

B1: IIBS (dsDNA)
DNA 1: ATGAAATCTAACAATGCGCTCATCGTCATCCTCGGC
DNA 2: GCCGAGGATGACGATGAGCGCATTGTTAGATTTCAT
B1: binds.
